Assay [1] has as its target HLA-DQ2.5 on IHW09023 cells loaded with gamma 3 gliadin peptide (human; wheat). In words: cell-based or functional assay.
Assay [2] concerns the target HLA-DQ2.5 on IHW09023 cells loaded with omega1/2 gliadin peptide (human; wheat). In words: cell-based or functional assay.
The target of assay [3] is HLA-DQ2.5 on IHW09023 cells loaded with BC hordein peptide (human; barley). The experiment in a line: cell-based or functional assay.
Assay [4] addresses HLA-DQ2.5 on IHW09023 cells loaded with gamma 2 gliadin peptide (human; wheat). In words: cell-based or functional assay.
Assay [5] deals with HLA-DQ2.5 on IHW09023 cells loaded with gamma 1 gliadin peptide (human; wheat). The experiment in a line: cell-based or functional assay.
Assay [6] addresses HLA-DQ2.5 on IHW09023 cells loaded with gamma 4d gliadin peptide (human; wheat). The experiment in a line: cell-based or functional assay.
Assay [7] addresses HLA-DQ2.5 on IHW09023 cells loaded with 33mer gliadin peptide (human; wheat). The experiment in a line: cell-based or functional assay.
In assay [8] the target is HLA-DQ2.5 on IHW09023 cells loaded with gamma 4a gliadin peptide (human; wheat). In words: cell-based or functional assay.
The target in the next assay is T1, HLA-DQ7.5 on Ba/F3 cells (human, UniProt P01909 24-216; P01920 33-230, limits assumed).
T1 construct: whole, on cells; also called Ba/F3-HLA-DQ7.5
The experiment in a line: FACS, Ba/F3 cells; %MFI: IC17dK 0, DQN0139bb 100. Background: A flow cytometer gives signals particle by particle.

A further assay has as its target T2, HLA-DQ2.2 on Ba/F3 cells (human, UniProt P01909 24-216, limits assumed).
T2 construct: whole, on cells; also called Ba/F3-HLA-DQ2.2
T2 MHC II alpha: not shown
T2 MHC II beta: not shown
In words: FACS, Ba/F3 cells; %MFI: IC17dK 0, DQN0139bb 100.

The target in a further assay is T3, HLA-DQ2.5 on Ba/F3 cells (human, UniProt P01909 24-216, limits assumed).
T3 construct: whole, on cells; MHC class II without fused peptide; also called Ba/F3-HLA-DQ2.5
In words: FACS, Ba/F3 cells; %MFI: IC17dK 0, DQN0139bb 100.

The target in a further assay is T4, HLA-DQ7.3 on Ba/F3 cells (human, UniProt P01909 24-216; P01920 33-230, limits assumed).
T4 construct: whole, on cells; also called Ba/F3-HLA-DQ7.3
T4 MHC II alpha: not shown
T4 MHC II beta: not shown
In words: FACS, Ba/F3 cells; %MFI: IC17dK 0, DQN0139bb 100.

The target in another assay is T5, HLA-DQ8 on Ba/F3 cells (human, UniProt P01909 24-216; P01920 33-230, limits assumed).
T5 construct: whole, on cells; also called Ba/F3-HLA-DQ8
T5 MHC II alpha: not shown
T5 MHC II beta: not shown
The experiment in a line: FACS, Ba/F3 cells; %MFI: IC17dK 0, DQN0139bb 100.

The target in another assay is T6, HLA-DP on Ba/F3 cells (human, UniProt P20036 29-222; P04440 30-225, limits assumed).
T6 construct: whole, on cells; also called Ba/F3-HLA-DP
T6 sequence (P20036 29-222 limits assumed, chain 1 of 4, other chains not shown): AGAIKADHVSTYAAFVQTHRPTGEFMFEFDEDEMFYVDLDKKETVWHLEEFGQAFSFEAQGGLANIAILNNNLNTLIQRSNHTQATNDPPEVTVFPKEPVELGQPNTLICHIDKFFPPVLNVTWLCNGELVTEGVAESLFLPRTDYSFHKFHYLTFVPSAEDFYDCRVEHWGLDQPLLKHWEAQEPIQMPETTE
T6 sequence (P04440 30-225 limits assumed, chain 2 of 4, other chains not shown): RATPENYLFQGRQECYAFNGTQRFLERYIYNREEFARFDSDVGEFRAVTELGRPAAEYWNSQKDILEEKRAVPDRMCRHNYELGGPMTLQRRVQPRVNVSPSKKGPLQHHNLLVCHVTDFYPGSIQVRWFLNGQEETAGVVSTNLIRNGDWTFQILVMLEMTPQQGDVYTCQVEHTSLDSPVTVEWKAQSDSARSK
The experiment in a line: FACS, Ba/F3 cells; raw MFI.

The target in another assay is T7, HLA-DQ6.3 on Ba/F3 cells (human, UniProt P01920 33-230, limits assumed).
T7 construct: whole, on cells; also called Ba/F3-HLA-DQ6.3
T7 MHC II alpha: not shown
T7 MHC II beta: not shown
In words: FACS, Ba/F3 cells; raw MFI.

A further assay addresses T8, HLA-DQ5.1 on Ba/F3 cells (human, limits assumed).
T8 construct: whole, on cells; also called Ba/F3-HLA-DQ5.1
T8 MHC II alpha: not shown
T8 MHC II beta: not shown
In words: FACS, Ba/F3 cells; raw MFI.

A further assay concerns the target T9, HLA-DR on Ba/F3 cells (human, UniProt P01903 26-216; P79483 30-227, limits assumed).
T9 construct: whole, on cells; also called Ba/F3-HLA-DR
T9 MHC II alpha: not shown
T9 MHC II beta: not shown
In words: FACS, Ba/F3 cells; raw MFI.

The values below come from patent publication US20240400693A1 (Chugai, published 2024).

B1: DQN0344H1013/L0620//DQN0385H1270/L0722-F6 (bispecific antibody)
heavy 1: QVQLVESGGGVVQPGRSLRLSCAASGFTFSSAYWMVWVRQAPGQGLEWMGAVYGGSDTTYYAKWTEGRFTISRDTSKNTLYLQMNSLRAEDTAVYYCAREPLNYYYYGELNVWGQGTLVTVSSASTKGPSVFPLAPSSKSTSGGTAALGCLVKDYFPEPVTVSWNSGALTSGVHTFPAVLKSSGLYSLSSVVTVPSSSLGTQTYICNVNHKPSNTKVDKRVEPKSCDKTHTCPPCPAPELRRGPSVFLFPPKPKDTLMISRTPEVTCVVVDVSHEDPEVKFNWYVDGVEVHNAKTKPREEQYNSTYRVVSVLTVLHQDWLNGKEYKCKVSNKALPAPIEKTISKAKGQPREPQVYTLPPSREEMTKNQVSLTCLVKGFYPSDIAVEWESNGQPENNYKTTPPYLDSDGSFFLYSKLTVDKSRWQEGNVFSCSVLHEALHAHYTREELSLSP
light 1: DIQMTQSPSSLSASVGDRVTITCQATENIYSGLAWYQQKPGKAPKLLIYYVSTLAYGIPARFSGSGSGTDFTLTISSLEPEDFAVYYCQTYEDVSAVTFGQGTKVEIKRTVAAPSVFIFPPSDEQLKSGTAEVVCLLNNFYPREAKVQWKVDNALQSGNSEESVTEQDSKDSTYSLSSTLTLSKADYEKHKVYACEVTHQGLSSPVTKSFNRGEC
heavy 2: QVQLVESGGGVVQPGRSLRLSCAASGFTFSEWYFMSWVRQAPGKGLEWVASIDTGSGSIDYAEWVEGRFTISRDNSKNTLYLQMNSLRAEDTAVYYCARDIGIDYNFWGPGTLVTVSSASTKGPSVFPLAPSSKSTSGGTAALGCLVEDYFPEPVTVSWNSGALTSGVHTFPAVLESSGLYSLSSVVTVPSSSLGTKTYICNVNHKPSNTKVDKRVEPKSCDKTHTCPPCPAPELRRGPSVFLFPPKPKDTLMISRTPEVTCVVVDVSHEDPEVKFNWYVDGVEVHNAKTKPREEQYNSTYRVVSVLTVLHQDWLNGKEYKCKVSNKALPAPIEKTISKAKGQPREPQVYTLPPSRKEMTKNQVSLTCLVKGFYPSDIAVEWESNGQPENNYKTTPPYLDSDGSFFLYSKLTVDKSRWQQGNVFSCSVLHEALHAHYTRKELSLSP
light 2: DIQMTQSPSSLSASVGDRVTITCQTTQSISSYLNWYQQKPGQPPKLLIYYASTKAEGIPARFSGSGLGTDFTLTISSLQPEDFAVYYCHYGISKVSFGQGTKVEIKRTVAAPSVFIFPPSDEQLKSGTAKVVCLLNNFYPREAKVQWKVDNALQSGNSKESVTEQDSKDSTYSLSSTLTLSKADYEKHKVYACEVTHQGLSSPVTKSFNRGEC
Regarding B1, the “IC50 (ng/mL), γ3 gliadin TCR, 100 µM γ3 gliadin” value in assay [1] was 3.31 ng/mL. In assay [2], the “IC50 (ng/mL), ω1 gliadin TCR, 25 µM ω1/2 gliadin” value amounted to 2.17 ng/mL. For the same molecule, the “IC50 (ng/mL), ω2 gliadin TCR, 250 nM ω1/2 gliadin” value in [2] was 0.22 ng/mL. Besides, the “IC50 (ng/mL), BC hordein TCR, 250 nM BC hordein” value in assay [3] amounted to 9.7 ng/mL. The “IC50 (ng/mL), γ2 gliadin TCR, 250 nM γ2 gliadin” value in assay [4] was 277 ng/mL. Further, the “IC50 (ng/mL), γ1 gliadin TCR, 250 nM γ1 gliadin” value in [5] was found to be 1.03 ng/mL. Also, in assay [6], the “IC50 (ng/mL), γ4d gliadin TCR, 100 µM γ4d gliadin” value was determined as 10.1 ng/mL. Besides, in assay [7], the “IC50 (ng/mL), α1a gliadin TCR, 250 nM 33mer gliadin” value came to 0.27 ng/mL. Further, in [7], the “IC50 (ng/mL), α1b gliadin TCR, 250 nM 33mer gliadin” value amounted to 1.25 ng/mL. Further, in [7], the “IC50 (ng/mL), α2 gliadin TCR, 250 nM 33mer gliadin” value was 0.33 ng/mL. Moreover, the “IC50 (ng/mL), γ4a gliadin TCR, 25 µM γ4a gliadin” value in assay [8] was found to be 1150 ng/mL. Moreover, the binding result with HLA-DQ7.5 on Ba/F3 cells, with HLA-DQ2.2 on Ba/F3 cells, with HLA-DQ2.5 on Ba/F3 cells, with HLA-DQ7.3 on Ba/F3 cells, with HLA-DQ8 on Ba/F3 cells and with HLA-DP on Ba/F3 cells was “no binding (tested: 0.05 micro g/mL)” each time. Besides, the binding result with HLA-DQ6.3 on Ba/F3 cells, in the assay with HLA-DQ5.1 on Ba/F3 cells and with HLA-DR on Ba/F3 cells was “no binding (tested: 0.05 micro g/mL)” throughout.
